# Reference: patent US20040171050A1 (PHARMACIA AND UPJOHN, published 2004)
# B1: recombinant S. aureus thymidylate kinase (with polyhistidine [his6] sequence tag) (enzyme)
# chain: MGSAFITFEGPEGSGKTTVINEVYHRLVKDYDVIMTREPGGVPTGEEIRKIVLEGNDMDIRTEAMLFAASRREHLVLKVIPALKEGKVVLCDRYIDSSLAYQGYARGIGVEEVRALNEFAINGLYPDLTIYLNVSAEVGRERIIKNSRDQNRLDQEDLKFHEKVIEGYQEIIHNESQRFKSVNADQPLENVVEDTYQTIIKYLEKIRSHHHHHH
# notes: Expressed in E. coli with a His6 tag; The crystals used for the structure were of the selenomethionine analogue (methionines replaced by selenomethionine); Gel filtration and light scattering appear to have used the native protein; also called S. aureus TMK; T. kinase
# Target: the molecule itself
# Assay: gel filtration (Superose 200); dynamic light scattering with MgCl2 also gave a monodisperse, dimeric sample; homodimer self-association
protein,measurement,value
B1,binding result,binds
